± gives the standard error. For some of these results: Variants at the floor of the assay were thinned out.
B1: glmS ribozyme (parent)
chain: AUAAAAGCGCCAGAACUACAGAAAUGUAGUUGACGAGGAGGAGGUUUAUCGAAUUUUCGGCGGAUGCCUCCAAA

Tests used:
Conditions in all cases: with glucosamine-6-phosphate
[1] = variants of: B1; test: kcat; higher = faster cleavage; RNA array
Summary of the method: (§1)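 Sequenced MiSeq chips were the platform: E. coli RNA polymerase transcribed barcoded ribozyme variants on them in situ, and a hybridised Cy3 probe tracked these at 37 °C. After glucosamine-6-phosphate (40 μM to 10 mM) in HEPES/KCl/Mg(OAc)2 buffer was flowed in, tiles were imaged over ~14 h. Signals normalised to baseline and to non-cleaving reference variants were reduced to per-tile medians and fit to one- or two-exponential decays to obtain kobs. kcat and KM were derived through weighted Michaelis–Menten fits across concentrations.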

[2] = variants of: B1; test: KM; higher = weaker cofactor use; RNA array
Summary of the method: as §1

[3] = variants of: B1; test: self-cleavage kobs at 640 uM GlcN6P; higher = faster cleavage; RNA array
Summary of the method: as §1

[4] = variants of: B1; test: self-cleavage kobs at 2500 uM GlcN6P; higher = faster cleavage; RNA array
Summary of the method: as §1

[5] = variants of: B1; test: self-cleavage kobs at 10000 uM GlcN6P; higher = faster cleavage; RNA array
Summary of the method: as §1

[6] = variants of: B1; test: self-cleavage kobs at 160 uM GlcN6P; higher = faster cleavage; RNA array
Summary of the method: as §1

[7] = variants of: B1; test: self-cleavage kobs at 40 uM GlcN6P; higher = faster cleavage; RNA array
Summary of the method: as §1

Variant	kcat [1] [s⁻¹]	KM [2] [µM]	self-cleavage kobs at 640 uM GlcN6P [3] [s⁻¹]	self-cleavage kobs at 2500 uM GlcN6P [4] [s⁻¹]	self-cleavage kobs at 10000 uM GlcN6P [5] [s⁻¹]	self-cleavage kobs at 160 uM GlcN6P [6] [s⁻¹]	self-cleavage kobs at 40 uM GlcN6P [7] [s⁻¹]
G29U U30A	0.000337 ± 3.2e-05	1900 ± 380	8.73e-05 ± 1.5e-05	0.000198 ± 3.2e-05	0.000278 ± 4e-05		
U30A C70A	6.65e-05 ± 2.4e-05			7.75e-05 ± 1.6e-05	5.12e-05 ± 1.3e-05		
U30C A42G	0.000456 ± 7.6e-05	1310 ± 520	0.00012 ± 3.3e-05	0.000368 ± 9.6e-05	0.0004 ± 5.9e-05	7.93e-05 ± 2.8e-05	
C16U U56C	0.00495 ± 0.00037	4050 ± 460	0.000693 ± 0.00011	0.00199 ± 0.00037	0.00349 ± 0.00036	0.00024 ± 8.3e-05	4.49e-05 ± 7.9e-06
G29U A53U	0.00357 ± 0.00055	1600 ± 360	0.00114 ± 0.00013	0.00252 ± 0.00027	0.00266 ± 0.00038	0.000275 ± 4.9e-05	8.45e-05 ± 1e-05
U30C A52G	1.33e-05 ± 2.9e-06						
G29U U46A	0.000356 ± 1.1e-05	2530 ± 150	7.15e-05 ± 1.2e-05	0.000184 ± 3.7e-05	0.000282 ± 3.6e-05		
G29C U47G	0.000341 ± 9.9e-05		7.76e-05 ± 1.8e-05	0.000393 ± 8.4e-05	0.000269 ± 4.6e-05		
G29C U47A	0.00173 ± 0.00071		0.000293 ± 3.8e-05	0.000579 ± 8.4e-05	0.00158 ± 0.0002	7.89e-05 ± 1.6e-05	4.95e-05 ± 1.1e-05
C19A G59U	0.000115 ± 2.9e-05				3.11e-05 ± 1.5e-05		
G29C U54C	0.00154 ± 0.00063		0.000301 ± 7.9e-05	0.000773 ± 0.00014	0.0019 ± 0.00032	0.000153 ± 2.5e-05	6.42e-05 ± 1.4e-05
U30A A33C	6.48e-05 ± 3e-06	4930 ± 560			4.35e-05 ± 1.2e-05		
C16U G51A C61G	1.5e-05 ± 3.9e-06						
U30C C58A	2.21e-05 ± 6e-06			2.92e-05 ± 1.1e-05			
C16U U69A	0.000112 ± 2.4e-05		9.39e-05 ± 3.7e-05	0.00022 ± 6.1e-05	0.000115 ± 2e-05	6.03e-05 ± 2e-05	7.08e-05 ± 2e-05
G29A A53C	0.000592 ± 0.0002		0.000185 ± 5.1e-05	0.00047 ± 0.00011		9.67e-05 ± 2.5e-05	

Variant	kcat [1] [s⁻¹]	KM [2] [µM]	self-cleavage kobs at 640 uM GlcN6P [3] [s⁻¹]	self-cleavage kobs at 2500 uM GlcN6P [4] [s⁻¹]	self-cleavage kobs at 10000 uM GlcN6P [5] [s⁻¹]	self-cleavage kobs at 160 uM GlcN6P [6] [s⁻¹]	self-cleavage kobs at 40 uM GlcN6P [7] [s⁻¹]
C16U C68G	8.6e-05 ± 6.4e-06	307 ± 140	5.77e-05 ± 1e-05	8.4e-05 ± 1e-05	7.86e-05 ± 9.3e-06		
G29A G66U	0.000177 ± 5.1e-05		6.51e-05 ± 2e-05	6.95e-05 ± 1.9e-05	0.00015 ± 1.9e-05		
G29A G38A C67A	1.79e-05 ± 4.1e-06						
U30A U49G	0.000169 ± 3.4e-05	3780 ± 1600		7.22e-05 ± 1.2e-05	0.000119 ± 2.1e-05		
G26U G40U	0.000912 ± 0.00012	272 ± 64	0.000586 ± 0.00016	0.00144 ± 0.00066	0.000883 ± 0.00019		0.000119 ± 2.3e-05
G29U U56G	0.00364 ± 0.0012	3840 ± 1700	0.000648 ± 9.8e-05	0.00118 ± 0.0002	0.00283 ± 0.00035	0.000127 ± 1.6e-05	6.41e-05 ± 1.1e-05
U30A C71A	0.00089 ± 0.00018	603 ± 230	0.000632 ± 0.0002	0.000946 ± 0.00022	0.00072 ± 0.00016		5.08e-05 ± 1.3e-05
G29A A39U	0.0047 ± 0.0016	3440 ± 1600	0.000731 ± 0.00013	0.00176 ± 0.0003	0.0037 ± 0.00049	0.000177 ± 3.4e-05	0.000107 ± 1.9e-05
G29A A39C	0.000943 ± 4.4e-05	1820 ± 150	0.000243 ± 3.2e-05	0.000521 ± 8.6e-05	0.000813 ± 9.1e-05	7.61e-05 ± 1.5e-05	2.46e-05 ± 8.5e-06
U30C C67U	0.0001 ± 1.3e-05	927 ± 390	3.56e-05 ± 7.9e-06	8.48e-05 ± 1.8e-05	9.05e-05 ± 1e-05	3.33e-05 ± 1.3e-05	
U30C C67G	1.07e-05 ± 2.3e-06						< 1e-05
U30A G37A	0.000308 ± 0.00011		6.25e-05 ± 1.2e-05	0.000141 ± 2.9e-05	0.000302 ± 7.7e-05	3.75e-05 ± 1.2e-05	
G29A C67U	0.000866 ± 0.00021	742 ± 320	0.00034 ± 5.8e-05	0.00056 ± 0.00012	0.00104 ± 0.00017	0.000247 ± 5.1e-05	4.43e-05 ± 8.6e-06
C16U A64U	9.47e-05 ± 1.3e-05			7.64e-05 ± 1.2e-05	8e-05 ± 6.6e-06		
U30C A64G	0.000351 ± 3.3e-05	1100 ± 200	0.000122 ± 1.4e-05	0.000267 ± 3e-05	0.000293 ± 4.9e-05	4.88e-05 ± 1.1e-05	
C16U G43A	8.72e-05 ± 3e-05			2.82e-05 ± 1e-05	6.17e-05 ± 1e-05		< 1e-05
